Results reported in US20230110958A1 (Regeneron, published 2023).

T1: murine IL27 receptor (IL27Ra and gp130) on mouse cells (MC9/STAT3-Luc reporter cells; splenic CD4+ T cells) (mouse, UniProt O70394 25-623; Q00560 23-917)
T1 sequence (looked up) 1: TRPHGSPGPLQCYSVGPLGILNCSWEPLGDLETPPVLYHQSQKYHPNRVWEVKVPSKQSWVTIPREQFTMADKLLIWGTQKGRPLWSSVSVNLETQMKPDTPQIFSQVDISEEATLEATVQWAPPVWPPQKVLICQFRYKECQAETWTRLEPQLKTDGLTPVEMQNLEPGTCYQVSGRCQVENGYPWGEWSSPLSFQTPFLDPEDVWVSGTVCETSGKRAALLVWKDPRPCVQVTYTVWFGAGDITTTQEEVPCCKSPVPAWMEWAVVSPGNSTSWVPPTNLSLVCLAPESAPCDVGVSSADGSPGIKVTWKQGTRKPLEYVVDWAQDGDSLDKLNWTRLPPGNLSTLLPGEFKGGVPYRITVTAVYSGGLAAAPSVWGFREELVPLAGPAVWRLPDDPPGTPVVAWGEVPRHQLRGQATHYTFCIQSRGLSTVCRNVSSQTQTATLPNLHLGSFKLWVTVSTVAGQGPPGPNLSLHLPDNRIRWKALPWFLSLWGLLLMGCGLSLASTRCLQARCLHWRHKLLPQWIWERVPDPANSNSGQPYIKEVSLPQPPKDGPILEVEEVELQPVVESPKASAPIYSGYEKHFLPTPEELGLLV
T1 sequence (looked up) 2: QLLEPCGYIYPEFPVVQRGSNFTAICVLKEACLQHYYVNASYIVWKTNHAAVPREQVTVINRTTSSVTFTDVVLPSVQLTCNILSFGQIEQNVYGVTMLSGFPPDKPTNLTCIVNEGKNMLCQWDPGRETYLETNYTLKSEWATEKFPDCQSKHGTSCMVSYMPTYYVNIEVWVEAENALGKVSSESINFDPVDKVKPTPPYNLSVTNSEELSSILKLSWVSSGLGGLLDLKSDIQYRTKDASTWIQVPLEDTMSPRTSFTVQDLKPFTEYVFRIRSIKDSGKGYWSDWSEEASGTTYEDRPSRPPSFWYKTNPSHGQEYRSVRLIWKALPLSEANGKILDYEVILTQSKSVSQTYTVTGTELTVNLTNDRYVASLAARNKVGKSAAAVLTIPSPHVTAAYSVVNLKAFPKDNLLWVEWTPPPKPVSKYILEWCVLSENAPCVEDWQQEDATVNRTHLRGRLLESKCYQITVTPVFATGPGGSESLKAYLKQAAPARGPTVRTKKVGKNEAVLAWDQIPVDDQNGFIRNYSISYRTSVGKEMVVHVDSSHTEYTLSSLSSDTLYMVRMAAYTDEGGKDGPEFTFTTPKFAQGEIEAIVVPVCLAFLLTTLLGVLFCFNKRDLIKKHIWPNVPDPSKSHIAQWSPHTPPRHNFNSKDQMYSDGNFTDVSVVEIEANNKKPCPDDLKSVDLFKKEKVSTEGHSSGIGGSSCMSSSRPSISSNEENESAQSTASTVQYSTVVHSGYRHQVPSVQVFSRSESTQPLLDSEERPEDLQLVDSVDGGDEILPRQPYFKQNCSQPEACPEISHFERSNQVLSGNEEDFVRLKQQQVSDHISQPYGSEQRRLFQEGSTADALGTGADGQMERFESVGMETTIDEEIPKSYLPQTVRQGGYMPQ


molecular target: T1, murine IL27 receptor (IL27Ra and gp130) …; experiment: cell-based or functional assay

| Binder | EC50 (M), STAT3 luciferase, MC9 cells [M] | FOLD INDUCTION, STAT3 luciferase, MC9 cells [fold] |
| --- | --- | --- |
| IL27M4, Bivalent Fc-EBI3-p28 (Fc fusion) ESKYGPPCPPCPAPPVAGPSVFLFPPKPKDTLMISRTPEVTCVVVDVSQEDPEVQFNWYVDGVEVHNAKTKPREEQFNSTYRVVSVLTVLHQDWLNGKEYKCKVSNKGLPSSIEKTISKAKGQPREPQVYTLPPSQEEMTKNQVSLTCLVKGFYPSDIAVEWESNGQPENNYKTTPPVLDSDGSFFLYSRLTVDKSRWQEGNVFSCSVMHEALHNHYTQKSLSLSLGKGGGGSGGGGSGGGGSYTETALVALSQPRVQCHASRYPVAVDCSWTPLQAPNSTRSTSFIATYRLGVATQQQSQPCLQRSPQASRCTIPDVHLFSTVPYMLNVTAVHPGGASSSLLAFVAERIIKPDPPEGVRLRTAGQRLQVLWHPPASWPFPDIFSLKYRLRYRRRGASHFRQVGPIEATTFTLRNSKPHAKYCIQVSAQDLTDYGKPSDWSLPGQVESAPHKPGGGGSGGGGSGGGGSGGGGSFPTDPLSLQELRREFTVSLYLARKLLSEVQGYVHSFAESRLPGVNLDLLPLGYHLPNVSLTFQAWHHLSDSERLCFLATTLRPFPAMLGGLGTQGTWTSSEREQLWAMRLDLRDLHRHLRFQVLAAGFKCSKEEEDKEEEEEEEEEEKKLPLGALGGPNQVSSQVSWPQLLYTYQLLHSLELVLSRAVRDLLLLSLPRRPGSAWDS | 4.71e-10 | 2.78 |
| IL27M5, Bivalent Fc-p28-EBI3 (Fc fusion) ESKYGPPCPPCPAPPVAGPSVFLFPPKPKDTLMISRTPEVTCVVVDVSQEDPEVQFNWYVDGVEVHNAKTKPREEQFNSTYRVVSVLTVLHQDWLNGKEYKCKVSNKGLPSSIEKTISKAKGQPREPQVYTLPPSQEEMTKNQVSLTCLVKGFYPSDIAVEWESNGQPENNYKTTPPVLDSDGSFFLYSRLTVDKSRWQEGNVFSCSVMHEALHNHYTQKSLSLSLGKGGGGSGGGGSGGGGSFPTDPLSLQELRREFTVSLYLARKLLSEVQGYVHSFAESRLPGVNLDLLPLGYHLPNVSLTFQAWHHLSDSERLCFLATTLRPFPAMLGGLGTQGTWTSSEREQLWAMRLDLRDLHRHLRFQVLAAGFKCSKEEEDKEEEEEEEEEEKKLPLGALGGPNQVSSQVSWPQLLYTYQLLHSLELVLSRAVRDLLLLSLPRRPGSAWDSGGGGSGGGGSGGGGSGGGGSGGGGSYTETALVALSQPRVQCHASRYPVAVDCSWTPLQAPNSTRSTSFIATYRLGVATQQQSQPCLQRSPQASRCTIPDVHLFSTVPYMLNVTAVHPGGASSSLLAFVAERIIKPDPPEGVRLRTAGQRLQVLWHPPASWPFPDIFSLKYRLRYRRRGASHFRQVGPIEATTFTLRNSKPHAKYCIQVSAQDLTDYGKPSDWSLPGQVESAPHKP | 4.19e-10 | 2.91 |
| IL27M3, Bivalent p28-EBI3-Fc (Fc fusion) FPTDPLSLQELRREFTVSLYLARKLLSEVQGYVHSFAESRLPGVNLDLLPLGYHLPNVSLTFQAWHHLSDSERLCFLATTLRPFPAMLGGLGTQGTWTSSEREQLWAMRLDLRDLHRHLRFQVLAAGFKCSKEEEDKEEEEEEEEEEKKLPLGALGGPNQVSSQVSWPQLLYTYQLLHSLELVLSRAVRDLLLLSLPRRPGSAWDSGGGGSGGGGSGGGGSGGGGSGGGGSYTETALVALSQPRVQCHASRYPVAVDCSWTPLQAPNSTRSTSFIATYRLGVATQQQSQPCLQRSPQASRCTIPDVHLFSTVPYMLNVTAVHPGGASSSLLAFVAERIIKPDPPEGVRLRTAGQRLQVLWHPPASWPFPDIFSLKYRLRYRRRGASHFRQVGPIEATTFTLRNSKPHAKYCIQVSAQDLTDYGKPSDWSLPGQVESAPHKPGGGGSGGGGSGGGGSESKYGPPCPPCPAPPVAGPSVFLFPPKPKDTLMISRTPEVTCVVVDVSQEDPEVQFNWYVDGVEVHNAKTKPREEQFNSTYRVVSVLTVLHQDWLNGKEYKCKVSNKGLPSSIEKTISKAKGQPREPQVYTLPPSQEEMTKNQVSLTCLVKGFYPSDIAVEWESNGQPENNYKTTPPVLDSDGSFFLYSRLTVDKSRWQEGNVFSCSVMHEALHNHYTQKSLSLSLGK | 8.63e-10 | 3.02 |

Second part, the binder after the results:

| EC50 (M), STAT3 luciferase, MC9 cells [M] | FOLD INDUCTION, STAT3 luciferase, MC9 cells [fold] | Binder |
| --- | --- | --- |
| 3.21e-11 | 2.8 | IL27M6, monovalent Fc-p28 x EBI3 (Fc fusion) chain 1: ESKYGPPCPPCPAPPVAGPSVFLFPPKPKDTLMISRTPEVTCVVVDVSQEDPEVQFNWYVDGVEVHNAKTKPREEQFNSTYRVVSVLTVLHQDWLNGKEYKCKVSNKGLPSSIEKTISKAKGQPREPQVYTLPPSQEEMTKNQVSLWCLVKGFYPSDIAVEWESNGQPENNYKTTPPVLDSDGSFFLYSRLTVDKSRWQEGNVFSCSVMHEALHNHYTQKSLSLSLGKGGGGSGGGGSGGGGSFPTDPLSLQELRREFTVSLYLARKLLSEVQGYVHSFAESRLPGVNLDLLPLGYHLPNVSLTFQAWHHLSDSERLCFLATTLRPFPAMLGGLGTQGTWTSSEREQLWAMRLDLRDLHRHLRFQVLAAGFKCSKEEEDKEEEEEEEEEEKKLPLGALGGPNQVSSQVSWPQLLYTYQLLHSLELVLSRAVRDLLLLSLPRRPGSAWDS chain 2: ESKYGPPCPPCPAPPVAGPSVFLFPPKPKDTLMISRTPEVTCVVVDVSQEDPEVQFNWYVDGVEVHNAKTKPREEQFNSTYRVVSVLTVLHQDWLNGKEYKCKVSNKGLPSSIEKTISKAKGQPREPQVYTLPPSQEEMTKNQVSLSCAVKGFYPSDIAVEWESNGQPENNYKTTPPVLDSDGSFFLVSRLTVDKSRWQEGNVFSCSVMHEALHNRFTQKSLSLSPGKGGGGSGGGGSGGGGSYTETALVALSQPRVQCHASRYPVAVDCSWTPLQAPNSTRSTSFIATYRLGVATQQQSQPCLQRSPQASRCTIPDVHLFSTVPYMLNVTAVHPGGASSSLLAFVAERIIKPDPPEGVRLRTAGQRLQVLWHPPASWPFPDIFSLKYRLRYRRRGASHFRQVGPIEATTFTLRNSKPHAKYCIQVSAQDLTDYGKPSDWSLPGQVESAPHKP |
|  | 1.11 | IL27M13, Bivalent p28-Fc (Fc fusion) FPTDPLSLQELRREFTVSLYLARKLLSEVQGYVHSFAESRLPGVNLDLLPLGYHLPNVSLTFQAWHHLSDSERLCFLATTLRPFPAMLGGLGTQGTWTSSEREQLWAMRLDLRDLHRHLRFQVLAAGFKCSKEEEDKEEEEEEEEEEKKLPLGALGGPNQVSSQVSWPQLLYTYQLLHSLELVLSRAVRDLLLLSLPRRPGSAWDSGGGGSGGGGSGGGGSESKYGPPCPPCPAPPVAGPSVFLFPPKPKDTLMISRTPEVTCVVVDVSQEDPEVQFNWYVDGVEVHNAKTKPREEQFNSTYRVVSVLTVLHQDWLNGKEYKCKVSNKGLPSSIEKTISKAKGQPREPQVYTLPPSQEEMTKNQVSLTCLVKGFYPSDIAVEWESNGQPENNYKTTPPVLDSDGSFFLYSRLTVDKSRWQEGNVFSCSVMHEALHNHYTQKSLSLSLGK |
| 1.22e-11 | 2.68 | IL27M12, monovalent EBI3-p28 x Fc (Fc fusion) chain 1: YTETALVALSQPRVQCHASRYPVAVDCSWTPLQAPNSTRSTSFIATYRLGVATQQQSQPCLQRSPQASRCTIPDVHLFSTVPYMLNVTAVHPGGASSSLLAFVAERIIKPDPPEGVRLRTAGQRLQVLWHPPASWPFPDIFSLKYRLRYRRRGASHFRQVGPIEATTFTLRNSKPHAKYCIQVSAQDLTDYGKPSDWSLPGQVESAPHKPGGGGSGGGGSGGGGSGGGGSFPTDPLSLQELRREFTVSLYLARKLLSEVQGYVHSFAESRLPGVNLDLLPLGYHLPNVSLTFQAWHHLSDSERLCFLATTLRPFPAMLGGLGTQGTWTSSEREQLWAMRLDLRDLHRHLRFQVLAAGFKCSKEEEDKEEEEEEEEEEKKLPLGALGGPNQVSSQVSWPQLLYTYQLLHSLELVLSRAVRDLLLLSLPRRPGSAWDSGGGGSGGGGSGGGGSESKYGPPCPPCPAPPVAGPSVFLFPPKPKDTLMISRTPEVTCVVVDVSQEDPEVQFNWYVDGVEVHNAKTKPREEQFNSTYRVVSVLTVLHQDWLNGKEYKCKVSNKGLPSSIEKTISKAKGQPREPQVYTLPPSQEEMTKNQVSLWCLVKGFYPSDIAVEWESNGQPENNYKTTPPVLDSDGSFFLYSRLTVDKSRWQEGNVFSCSVMHEALHNHYTQKSLSLSLGK chain 2: ESKYGPPCPPCPAPPVAGPSVFLFPPKPKDTLMISRTPEVTCVVVDVSQEDPEVQFNWYVDGVEVHNAKTKPREEQFNSTYRVVSVLTVLHQDWLNGKEYKCKVSNKGLPSSIEKTISKAKGQPREPQVYTLPPSQEEMTKNQVSLSCAVKGFYPSDIAVEWESNGQPENNYKTTPPVLDSDGSFFLVSRLTVDKSRWQEGNVFSCSVMHEALHNRFTQKSLSLSPGK |
